Experiments:
[1] = target: Recombinant protein G; experiment: optical weak value amplification (WVA) sensor; recombinant protein G (50 µg/mL, 30 min) immobilised on polydopamine on the prism, surface blocked; 10 µg/mL antibody (mouse IgG) injected at 30 µL/min for 120 min; PBS, 25 °C; reference channel with PBS subtracted; curves fitted with the intraparticle diffusion model
[2] = target: Mouse Immunoglobulin G (mouse); experiment: optical weak value amplification (WVA) sensor; oriented strategy: mouse IgG captured on immobilised protein G; 30 µg/mL protein L injected until the signal was saturated (120 min); 25 °C

| Substance | Kid,1 (intraparticle diffusion rate constant, surface diffusion stage) [1] [a.u.min^−1/2] | Kid,2 (intraparticle diffusion rate constant, intraparticle diffusion stage) [1] [a.u.min^−1/2] | Kid,3 (intraparticle diffusion rate constant, intraparticle diffusion stage) [1] [a.u.min^−1/2] | fold antibody immobilised, against random immobilisation on polydopamine [1] [fold] | fold binding sites, against randomly immobilised IgG [2] [times] |
| --- | --- | --- | --- | --- | --- |
| Mouse Immunoglobulin G (antibody) | 454 | 239 | 83.9 | 2.27 | – |
| Recombinant protein L | – | – | – | – | 1.59 |

From publication PMC12157903
